Data on one molecule can be found in paper PMC5902495, “Synthesis of Symmetrical Tetrameric Conjugates of the Radiolanthanide Chelator DOTPI for Application in Endoradiotherapy by Means of Click Chemistry” (Frontiers in Chemistry, 2018).

Series [1] can be described thus: Octanol-water distribution coefficients. In kind it is physicochemical. Particulars: n-octanol / PBS pH 7.4, ^177Lu-labeled tracer, n = 6. The procedure: Approximately 1 MBq of the ^177Lu-labeled tracer was added to a mixture of 0.5 mL phosphate buffered saline (PBS, pH 7.4) and 0.5 mL n-octanol in an Eppendorf tube (n = 6). After vigorous mixing of the suspension for 3 min, the vial was centrifuged at 11.500 g for 3 min for phase separation. 200 μL aliquots of each phase were withdrawn and measured in a gamma counter.

Series [2] has as its system subcutaneous LNCaP (PSMA-expressing human prostate carcinoma) xenografts. Briefly: Biodistribution in SCID mice bearing LNCaP xenografts. In kind it is in vivo. The settings on record: compared to ^177Lu-DOTPI(DBCO-KuE)4. How it is done: The experiments were carried out in accordance with the German Animal Welfare Act (Tierschutzgesetz), and were previously approved by the responsible authority (Regierung von Oberbayern). The animal model, male CB-17 SCID mice bearing subcutaneous LNCaP tumor xenografts, were generated as described before (Weineisen et al., [2014]). Approximately 1–4 MBq (varying molar activities; absolute molar amounts of active compound ranging from 0.11 to 0.15 nmol) of the ^177Lu-labeled PSMA inhibitors were injected into the tail vein of the animals, which were sacrificed 1 and 24 h post injection (n = 3 per tracer per time point). Selected organs were removed, weighted and the activities contained were measured in a γ-counter.

The molecule `O=C(O)CC[C@H](NC(=O)N[C@@H](CCCCNC(=O)CCCCCNC(=O)CCc1cn(CCCNC(=O)CCP(=O)(O)CN2CCN(CP(=O)(O)CCC(=O)NCCCn3cc(CCC(=O)NCCCCCC(=O)NCCCC[C@H](NC(=O)N[C@@H](CCC(=O)O)C(=O)O)C(=O)O)nn3)CCN(CP(=O)(O)CCC(=O)NCCCn3cc(CCC(=O)NCCCCCC(=O)NCCCC[C@H](NC(=O)N[C@@H](CCC(=O)O)C(=O)O)C(=O)O)nn3)CCN(CP(=O)(O)CCC(=O)NCCCn3cc(CCC(=O)NCCCCCC(=O)NCCCC[C@H](NC(=O)N[C@@H](CCC(=O)O)C(=O)O)C(=O)O)nn3)CC2)nn1)C(=O)O)C(=O)O` (single isomer, unassigned) [^177Lu-DOTPI(Trz-KuE)4, metal not drawn] gave a logD in series [1] of -5 ± 0.1. In series [2] (1 and 24 h post injection), the kidney uptake result is “remarkably low”. In addition, the tumor-to-organ ratios result in series [2] (after 24 h) is “substantially better”. Further, in series [2], the “washout from non-target tissues” value is “much faster”.

Usually logD stands for lipophilicity at a set pH, counting ionised and neutral species. Read a high logD as a more lipophilic compound.
